Measurements taken from patent publication US20160009772A1, “CELL PENETRATING PEPTIDES WHICH BIND IRF5” (priority 2012, published 2016).

Molecular target: Wild type IRF5 (222-467) (human) (UniProt Q13568)
Assay: TR-FRET

Chain of Wild type IRF5 (222-467) (Q13568 232-477): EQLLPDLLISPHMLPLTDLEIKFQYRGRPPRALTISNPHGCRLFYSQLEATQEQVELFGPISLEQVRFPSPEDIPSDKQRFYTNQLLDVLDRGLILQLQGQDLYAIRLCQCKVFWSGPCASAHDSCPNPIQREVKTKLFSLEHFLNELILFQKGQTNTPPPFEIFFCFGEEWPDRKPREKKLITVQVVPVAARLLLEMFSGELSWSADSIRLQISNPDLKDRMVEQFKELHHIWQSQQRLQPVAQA

Kd [µM]	Substance
1.58	IRF5(222-467, S430D), S430D phosphomimetic construct of IRF5 (222-467) (from UniProt Q13568 222-467)
4.21	Wild type IRF5 (222-467) (from UniProt Q13568 232-477)
